Drawing on PMC10164081, this text covers folding of the Gαolf-RLuc sensor (luminescence) in RIC-8B knockout HEK293T cells and maximal thermal shift (ΔTm) for two substances.

In one experiment the target is Gαolf (human) (UniProt P38405).
In experiment [1] the target is purified Ric-8B (peptide-binding thermal shift assay) (mouse) (UniProt Q80XE1). Put plainly: differential scanning fluorimetry. Background: DSF heats the sample and reads unfolding from a dye or from intrinsic fluorescence.
Sequence of purified Ric-8B (peptide-binding thermal shift assay) (mouse) (Q80XE1 1-483): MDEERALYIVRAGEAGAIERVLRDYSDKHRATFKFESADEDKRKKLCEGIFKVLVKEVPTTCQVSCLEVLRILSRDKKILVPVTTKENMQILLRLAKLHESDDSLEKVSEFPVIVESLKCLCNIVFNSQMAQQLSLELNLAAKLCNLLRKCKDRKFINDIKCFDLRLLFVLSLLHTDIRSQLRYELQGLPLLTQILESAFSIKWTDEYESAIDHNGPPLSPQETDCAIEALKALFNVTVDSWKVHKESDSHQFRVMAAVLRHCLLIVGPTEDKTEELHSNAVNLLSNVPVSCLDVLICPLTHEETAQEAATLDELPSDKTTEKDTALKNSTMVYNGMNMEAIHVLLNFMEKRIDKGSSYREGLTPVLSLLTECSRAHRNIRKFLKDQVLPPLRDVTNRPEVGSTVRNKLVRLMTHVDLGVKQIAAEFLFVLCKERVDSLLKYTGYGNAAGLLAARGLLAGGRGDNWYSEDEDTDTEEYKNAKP

Sequence of Gαolf (human) (P38405 whole entry): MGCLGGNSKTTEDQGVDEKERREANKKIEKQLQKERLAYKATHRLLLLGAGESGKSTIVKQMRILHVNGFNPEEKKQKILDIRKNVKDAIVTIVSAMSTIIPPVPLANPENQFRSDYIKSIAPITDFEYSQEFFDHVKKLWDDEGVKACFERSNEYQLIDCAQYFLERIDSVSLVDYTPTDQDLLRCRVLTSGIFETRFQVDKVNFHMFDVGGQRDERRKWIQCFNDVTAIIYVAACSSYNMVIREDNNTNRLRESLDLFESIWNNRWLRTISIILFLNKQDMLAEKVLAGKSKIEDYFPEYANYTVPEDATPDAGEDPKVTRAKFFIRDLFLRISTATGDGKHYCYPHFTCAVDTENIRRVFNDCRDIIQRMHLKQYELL

“Ric-8B with its ARM7 loop replaced by that of Ric-8A” gave a folding of the Gαolf-RLuc sensor (luminescence) in RIC-8B knockout HEK293T cells in the experiment with Gαolf (human) of 10 % decrease.
As for Gαs C-term amidated peptide, in experiment [1], the maximal thermal shift (ΔTm) came to 3.3 °C.
